Columns and labels:
[1] = biological target: Tpm1.12-enveloped filamentous β-actin (human | rat) (UniProt P60709); assay: stopped-flow light scattering; 4 μM NM-2B0 mixed with 0.5–4 μM bare actin or actin-Tpm complex, light scattering at 405 nm; 20 °C; 20 mM MOPS pH 7.0, 100 mM KCl, 5 mM MgCl2; no nucleotide; k+A from the slope, k−A from the y intercept, KA = k−A/k+A
[2] = biological target: Tpm3.1-enveloped filamentous β-actin (human) (UniProt P60709); assay: as above
[3] = biological target: acto-NM-2B (filamentous β-actin with NM-2B–HMM) (human) (UniProt P60709); assay: co-sedimentation; 6:1 acto–Tpm mixture (6 μM β-actin, 1 μM Tpm) with 0–16 μM NM-2B–HMM, 30 min; 20 mM MOPS pH 7.0, 5 mM MgCl2, 50 mM KCl; pelleted 20 min at 100,000 × g; Hill fit
[4] = biological target: filamentous β-actin (human) (UniProt P60709); assay: co-sedimentation; 10 μM β-actin preincubated with 0–10 μM Tpm for 30 min at room temperature; 20 mM MOPS pH 7.0, 5 mM MgCl2, 100 mM KCl; SDS-PAGE densitometry of supernatant and pellet; Hill fit, apparent constants (K50%)

| Substance | Kd [1] | Kd [2] | Kd [3] | Kd [4] |
| --- | --- | --- | --- | --- |
| single-headed construct NM-2B0 (motor domain of human NM-2B0, residues 1–782, two Dictyostelium discoideum α-actinin repeats, C-terminal octahistidine tag) (from UniProt P35580 1-782) (domain or fragment) | 80 nM | 30 nM |  |  |
| Tpm1.8cy (b.–.b.d) (natural protein) |  |  | < 100 nM | 100 nM |

From article PMC5777259
